Test results as given in PMC11986143 (Nature Communications, 2025).
[ ]: non-standard residue; d: D form.

Target: integrin αvβ3 on bEnd.3 vesicles (mouse (endogenous in bEnd.3), UniProt P43406 31-1044; O54890 26-787)
Assay: SPR

Sequence of integrin αvβ3 on bEnd.3 vesicles (P43406 31-1044, chain 1 of 2): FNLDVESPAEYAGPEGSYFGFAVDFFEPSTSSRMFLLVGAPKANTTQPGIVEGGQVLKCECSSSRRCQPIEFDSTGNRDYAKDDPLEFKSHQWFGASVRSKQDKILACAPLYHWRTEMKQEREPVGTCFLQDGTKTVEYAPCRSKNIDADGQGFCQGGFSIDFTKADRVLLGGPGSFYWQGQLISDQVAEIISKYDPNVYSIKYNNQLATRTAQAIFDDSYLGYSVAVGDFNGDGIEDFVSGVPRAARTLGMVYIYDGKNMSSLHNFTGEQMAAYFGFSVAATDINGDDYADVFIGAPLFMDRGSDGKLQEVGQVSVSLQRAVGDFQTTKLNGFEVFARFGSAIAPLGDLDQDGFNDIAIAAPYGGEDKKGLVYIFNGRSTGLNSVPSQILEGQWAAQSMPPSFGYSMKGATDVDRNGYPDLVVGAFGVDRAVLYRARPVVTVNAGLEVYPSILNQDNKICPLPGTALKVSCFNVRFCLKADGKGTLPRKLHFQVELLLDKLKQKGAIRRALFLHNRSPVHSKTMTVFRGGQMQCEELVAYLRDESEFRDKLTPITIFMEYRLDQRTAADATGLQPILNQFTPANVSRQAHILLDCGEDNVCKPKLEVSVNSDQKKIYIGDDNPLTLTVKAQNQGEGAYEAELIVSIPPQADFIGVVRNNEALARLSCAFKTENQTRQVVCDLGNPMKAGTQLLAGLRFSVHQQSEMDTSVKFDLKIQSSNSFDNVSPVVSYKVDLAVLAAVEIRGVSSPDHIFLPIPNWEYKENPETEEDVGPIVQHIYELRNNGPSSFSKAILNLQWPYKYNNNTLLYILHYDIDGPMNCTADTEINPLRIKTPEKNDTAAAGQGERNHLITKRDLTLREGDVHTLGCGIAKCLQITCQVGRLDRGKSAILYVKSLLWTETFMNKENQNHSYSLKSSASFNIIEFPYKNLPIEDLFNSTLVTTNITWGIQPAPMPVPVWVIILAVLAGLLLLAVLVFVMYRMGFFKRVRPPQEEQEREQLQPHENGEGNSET
Sequence of integrin αvβ3 on bEnd.3 vesicles (O54890 26-787, chain 2 of 2): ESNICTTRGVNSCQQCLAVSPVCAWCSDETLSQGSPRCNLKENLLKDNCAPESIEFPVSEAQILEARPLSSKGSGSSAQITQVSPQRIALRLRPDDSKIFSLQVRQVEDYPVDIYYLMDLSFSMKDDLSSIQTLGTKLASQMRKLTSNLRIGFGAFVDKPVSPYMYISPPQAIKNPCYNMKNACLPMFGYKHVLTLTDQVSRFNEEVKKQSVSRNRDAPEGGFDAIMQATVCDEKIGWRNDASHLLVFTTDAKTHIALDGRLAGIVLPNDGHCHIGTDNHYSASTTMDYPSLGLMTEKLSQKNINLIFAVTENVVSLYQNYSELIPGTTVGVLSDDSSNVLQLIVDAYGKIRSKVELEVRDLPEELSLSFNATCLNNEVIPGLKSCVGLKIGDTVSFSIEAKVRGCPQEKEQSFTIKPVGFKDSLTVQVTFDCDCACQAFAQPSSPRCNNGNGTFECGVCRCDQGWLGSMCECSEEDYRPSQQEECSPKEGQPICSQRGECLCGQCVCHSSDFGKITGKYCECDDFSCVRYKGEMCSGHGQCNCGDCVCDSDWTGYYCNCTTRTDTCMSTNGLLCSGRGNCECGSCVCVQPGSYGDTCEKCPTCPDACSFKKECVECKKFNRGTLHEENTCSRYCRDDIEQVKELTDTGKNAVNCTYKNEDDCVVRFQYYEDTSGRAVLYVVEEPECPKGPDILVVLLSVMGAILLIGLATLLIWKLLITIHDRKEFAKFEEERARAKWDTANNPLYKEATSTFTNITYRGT

Kd: 17.1 µM
B1: c(RGDyK) peptide (peptide)
peptide: cyclo(RGD[dY]K)
